Source: patent publication US20150133367A1 (University of Pennsylvania, published 2015)
Several values for one entry are separate records, joined by “and”; a condition that tells them apart may be missing. Identical values can stand only once. Like-named read-outs stand apart in the source and are kept apart here. Positions of bridges follow the written chain, without caps; N, C: chain ends. Non-standard residues stand in square brackets, D forms with d. No end group written: not given here. alpha,alpha'‑meta‑xylylene = alpha,alpha'-meta-xylylene linker (from a,a'-dibromo-meta-xylene) bridging two cysteines via bis-thioether; βAla = NCCC(=O)O

T1: Calpain-1
T1 chain 1: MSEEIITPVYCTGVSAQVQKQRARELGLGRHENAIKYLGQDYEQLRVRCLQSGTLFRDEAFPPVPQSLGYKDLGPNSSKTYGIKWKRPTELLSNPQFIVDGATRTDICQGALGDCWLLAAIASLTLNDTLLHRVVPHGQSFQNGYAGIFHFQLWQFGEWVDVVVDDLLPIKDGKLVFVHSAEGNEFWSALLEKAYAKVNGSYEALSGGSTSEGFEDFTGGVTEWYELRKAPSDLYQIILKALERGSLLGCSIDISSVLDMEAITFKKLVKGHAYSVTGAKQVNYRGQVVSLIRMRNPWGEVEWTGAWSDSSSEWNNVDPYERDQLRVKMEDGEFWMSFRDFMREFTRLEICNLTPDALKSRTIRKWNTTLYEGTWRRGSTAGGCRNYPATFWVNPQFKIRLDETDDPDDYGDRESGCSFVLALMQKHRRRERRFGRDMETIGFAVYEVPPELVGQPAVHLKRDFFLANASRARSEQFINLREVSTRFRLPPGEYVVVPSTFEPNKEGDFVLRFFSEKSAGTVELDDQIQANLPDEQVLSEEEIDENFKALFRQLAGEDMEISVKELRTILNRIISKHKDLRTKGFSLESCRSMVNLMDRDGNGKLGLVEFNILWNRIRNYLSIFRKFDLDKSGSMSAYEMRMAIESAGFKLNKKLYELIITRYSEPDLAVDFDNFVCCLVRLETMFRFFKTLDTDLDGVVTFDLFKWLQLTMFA
T1 chain 2: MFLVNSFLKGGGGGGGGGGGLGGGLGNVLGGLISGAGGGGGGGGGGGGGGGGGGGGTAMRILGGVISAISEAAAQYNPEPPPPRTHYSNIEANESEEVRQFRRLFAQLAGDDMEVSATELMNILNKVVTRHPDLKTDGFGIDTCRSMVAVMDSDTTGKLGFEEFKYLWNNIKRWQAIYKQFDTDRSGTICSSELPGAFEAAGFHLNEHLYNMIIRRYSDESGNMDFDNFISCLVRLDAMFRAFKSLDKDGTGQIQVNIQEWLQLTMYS

T2: Cathepsin K (UniProt P43235 115-329)
T2 sequence (looked up): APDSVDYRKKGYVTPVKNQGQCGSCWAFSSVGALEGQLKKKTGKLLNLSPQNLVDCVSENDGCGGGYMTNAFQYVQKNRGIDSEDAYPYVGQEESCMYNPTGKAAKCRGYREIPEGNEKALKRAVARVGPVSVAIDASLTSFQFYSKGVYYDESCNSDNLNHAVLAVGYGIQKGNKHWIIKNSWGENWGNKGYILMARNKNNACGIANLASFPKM

B1: IPPKYRCLLAC (SEQ ID NO:66) (peptide)
peptide: IPPKYRCLLAC
modifications: linker 7-11 via alpha,alpha'‑meta‑xylylene
B2: LGKREVTIPPKYCELLC (SEQ ID NO:67) (peptide)
peptide: LGKREVTIPPKYCELLC
modifications: linker 13-17 via alpha,alpha'‑meta‑xylylene
notes: 17 amino acids
B3: LFKREVTIPPKYCELLC (SEQ ID NO:68) (peptide)
peptide: LFKREVTIPPKYCELLC
modifications: linker 13-17 via alpha,alpha'‑meta‑xylylene
notes: 17 amino acids
B4: EVTIPPKYCELLC (SEQ ID NO:69) (peptide)
peptide: EVTIPPKYCELLC
modifications: linker 9-13 via alpha,alpha'‑meta‑xylylene
B5: (b-Ala)AIPPKYCELLC (SEQ ID NO:70) (peptide)
peptide: [βAla]AIPPKYCELLC
modifications: linker 8-12 via alpha,alpha'‑meta‑xylylene
B6: DPPKYCELLC (SEQ ID NO:71) (peptide)
peptide: DPPKYCELLC
modifications: linker 6-10 via alpha,alpha'‑meta‑xylylene
B7: IPPKYCELLC (SEQ ID NO:65) (peptide)
peptide: IPPKYCELLC
modifications: linker 6-10 via alpha,alpha'‑meta‑xylylene
B8: APPKYCELLC (SEQ ID NO:72) (peptide)
peptide: APPKYCELLC
modifications: linker 6-10 via alpha,alpha'‑meta‑xylylene
B9: IPPAYCELLC (SEQ ID NO:78) (peptide)
peptide: IPPAYCELLC
modifications: linker 6-10 via alpha,alpha'‑meta‑xylylene
B10: IPPKACELLC (SEQ ID NO:81) (peptide)
peptide: IPPKACELLC
modifications: linker 6-10 via alpha,alpha'‑meta‑xylylene
B11: IPPKYCALLC (SEQ ID NO:84) (peptide)
peptide: IPPKYCALLC
modifications: linker 6-10 via alpha,alpha'‑meta‑xylylene
B12: IPPKYCEALC (SEQ ID NO:86) (peptide)
peptide: IPPKYCEALC
modifications: linker 6-10 via alpha,alpha'‑meta‑xylylene
B13: IPPKYCEQLC (SEQ ID NO:85) (peptide)
peptide: IPPKYCEQLC
modifications: linker 6-10 via alpha,alpha'‑meta‑xylylene
notes: also called compound (Ia)
B14: IPPRWCELLC (SEQ ID NO:91) (peptide)
peptide: IPPRWCELLC
modifications: linker 6-10 via alpha,alpha'‑meta‑xylylene
B15: IPPRYCELLC (SEQ ID NO:80) (peptide)
peptide: IPPRYCELLC
modifications: linker 6-10 via alpha,alpha'‑meta‑xylylene
B16: LPPKYCELLC (SEQ ID NO:74) (peptide)
peptide: LPPKYCELLC
modifications: linker 6-10 via alpha,alpha'‑meta‑xylylene
B17: PPPKYCELLC (SEQ ID NO:73) (peptide)
peptide: PPPKYCELLC
modifications: linker 6-10 via alpha,alpha'‑meta‑xylylene
B18: QPPKYCELLC (SEQ ID NO:76) (peptide)
peptide: QPPKYCELLC
modifications: linker 6-10 via alpha,alpha'‑meta‑xylylene
B19: I(pf5)PKYCELLC (SEQ ID NO:77) (peptide)
peptide: IXPKYCELLC
modifications: Cys6 and Cys10 (i,i+4) linked by alpha,alpha'-meta-xylylene; residue 2 pf5 = pentafluorophenylalanine
B20: IPPKYCELFC (SEQ ID NO:88) (peptide)
peptide: IPPKYCELFC
modifications: linker 6-10 via alpha,alpha'‑meta‑xylylene
B21: TSEEVCSLMCS (SEQ ID NO:16) (peptide)
peptide: TSEEVCSLMCS
modifications: linker 6-10 via alpha,alpha'‑meta‑xylylene
B22: TSEEWCSLMCS (SEQ ID NO:21) (peptide)
peptide: TSEEWCSLMCS
modifications: linker 6-10 via alpha,alpha'‑meta‑xylylene
notes: single mutant
B23: TSEWVCSLMCS (SEQ ID NO:20) (peptide)
peptide: TSEWVCSLMCS
modifications: linker 6-10 via alpha,alpha'‑meta‑xylylene
notes: single mutant
B24: TWEEVCSLMCS (SEQ ID NO:18) (peptide)
peptide: TWEEVCSLMCS
modifications: linker 6-10 via alpha,alpha'‑meta‑xylylene
notes: single mutant
B25: TWEWVCSLMCS (SEQ ID NO:23) (peptide)
peptide: TWEWVCSLMCS
modifications: linker 6-10 via alpha,alpha'‑meta‑xylylene
notes: double mutant
B26: WSEEVCSLMCS (SEQ ID NO:17) (peptide)
peptide: WSEEVCSLMCS
modifications: linker 6-10 via alpha,alpha'‑meta‑xylylene
notes: single mutant
B27: WWEWVCSLMCS (SEQ ID NO:25) (peptide)
peptide: WWEWVCSLMCS
modifications: linker 6-10 via alpha,alpha'‑meta‑xylylene
notes: triple mutant
B28: WWEWWCSLMCS (SEQ ID NO:26) (peptide)
peptide: WWEWWCSLMCS
modifications: linker 6-10 via alpha,alpha'‑meta‑xylylene
notes: quadruple mutant; also called compound (IVa)
B29: FFEFFCSLMCS (SEQ ID NO:27) (peptide)
peptide: FFEFFCSLMCS
modifications: linker 6-10 via alpha,alpha'‑meta‑xylylene
B30: SCESVCKMTGL (SEQ ID NO:37) (peptide)
peptide: SCESVCKMTGL
modifications: linker 2-6 via alpha,alpha'‑meta‑xylylene
B31: SCEVVCKMTGP (SEQ ID NO:44) (peptide)
peptide: SCEVVCKMTGP
modifications: linker 2-6 via alpha,alpha'‑meta‑xylylene
B32: SCEEVCKPGGP (SEQ ID NO:47) (peptide)
peptide: SCEEVCKPGGP
modifications: linker 2-6 via alpha,alpha'‑meta‑xylylene
B33: SCESVCKPWGP (SEQ ID NO:50) (peptide)
peptide: SCESVCKPWGP
modifications: linker 2-6 via alpha,alpha'‑meta‑xylylene
notes: also called compound (IIa); quadruple mutant
B34: SCESVCKPWGPKVP (SEQ ID NO:55) (peptide)
peptide: SCESVCKPWGPKVP
modifications: linker 2-6 via alpha,alpha'‑meta‑xylylene
notes: 14-mer
B35: SCEVVCKMTGLKVPL (SEQ ID NO:56) (peptide)
peptide: SCEVVCKMTGLKVPL
modifications: linker 2-6 via alpha,alpha'‑meta‑xylylene
notes: 15-mer
B36: IPPCYRECLA (SEQ ID NO:64) (peptide)
peptide: IPPCYRECLA
modifications: linker 4-8 via alpha,alpha'‑meta‑xylylene

Tests used:
Experiment in all cases: fluorescence-based enzyme inhibition assay
[1] = target: T1, Calpain-1
[2] = target: T3, Cathepsin L (UniProt P07711 114-333)
[3] = target: T4, Cathepsin S (UniProt P25774 115-331)
[4] = target: T3, Cathepsin L; remark: listed apart in the source
[5] = target: T4, Cathepsin S; remark: listed apart in the source
[6] = target: T2, Cathepsin K
[7] = target: T1, Calpain-1
[8] = target: T4, Cathepsin S; remark: listed apart in the source
[9] = target: T2, Cathepsin K; remark: listed apart in the source

T3 sequence (P07711 114-333 limits assumed): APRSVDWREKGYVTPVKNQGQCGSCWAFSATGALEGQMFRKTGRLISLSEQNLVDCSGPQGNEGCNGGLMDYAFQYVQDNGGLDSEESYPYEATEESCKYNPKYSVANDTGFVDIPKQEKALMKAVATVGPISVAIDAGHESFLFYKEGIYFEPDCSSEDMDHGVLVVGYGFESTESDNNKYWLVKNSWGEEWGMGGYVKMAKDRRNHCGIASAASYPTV
T4 sequence (P25774 115-331 limits assumed): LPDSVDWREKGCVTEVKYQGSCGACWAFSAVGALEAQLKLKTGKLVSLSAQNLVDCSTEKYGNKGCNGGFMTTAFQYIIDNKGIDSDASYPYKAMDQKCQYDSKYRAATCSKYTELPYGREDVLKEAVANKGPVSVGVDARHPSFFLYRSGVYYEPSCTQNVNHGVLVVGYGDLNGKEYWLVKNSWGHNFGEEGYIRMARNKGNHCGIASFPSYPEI

Binder | Ki [1] | Ki [2] | Ki [3] | further results
B1 | 7.5 µM | 5.1 µM |  | 
B2 | 3.6 µM |  | 31.5 µM | 
B3 | 1.3 µM | 10.7 µM | 41.5 µM | 
B4 | 5.3 µM | 69.6 µM | 31.3 µM | 
B5 | 10.7 µM |  |  | 
B6 | 27.6 µM |  |  | 
B7 | 10.2 µM | 39.9 µM | 50.2 µM | 
B8 | 65.6 µM | 12.5 µM | 26.1 µM | 
B9 | 17.7 µM | 24.6 µM | 20.7 µM | 
B10 |  | 8.12 µM | 16.8 µM | 
B11 | 28.9 µM | 12.5 µM | 15.6 µM | 
B12 | 30.9 µM | 21.4 µM | 13.9 µM | 
B13 | 11 µM | 66.2 µM | 21.4 µM | 
B14 |  | 8.8 µM |  | 
B15 | 5.3 µM | 37.9 µM | 35.9 µM | 
B16 | 11 µM | 38.1 µM | 46.3 µM | 
B17 | 45.3 µM |  |  | 
B18 | 35 µM |  |  | 

Binder | Ki [1] | Ki [2] | Ki [3] | further results
B19 | 5.09 µM |  |  | 
B20 | 27.9 µM |  |  | 
B21 |  |  |  | Ki [4]: 16.7 µM; Ki [5]: 52.1 µM
B22 |  |  |  | Ki [4]: 105 µM; Ki [5]: 80.4 µM
B23 |  |  |  | Ki [4]: 57.1 µM; Ki [5]: 33.1 µM
B24 |  |  |  | Ki [4]: 93.9 µM; Ki [5]: 29.7 µM; Ki [6]: 67.5 µM
B25 |  |  |  | Ki [7]: 88.4 µM; Ki [4]: 33.8 µM; Ki [5]: 14.3 µM; Ki [6]: 65.7 µM
B26 |  |  |  | Ki [7]: 108 µM; Ki [4]: 76 µM; Ki [5]: 51 µM
B27 |  |  |  | Ki [7]: 85.5 µM; Ki [4]: 16.1 µM; Ki [5]: 6.74 µM; Ki [6]: 19.5 µM
B28 |  |  |  | Ki [7]: 66.7 µM; Ki [4]: 28.1 µM; Ki [5]: 1.23 µM; Ki [6]: 37.9 µM
B29 |  |  |  | Ki [5]: 13.1 µM
B30 |  |  |  | Ki [8]: 10.8 µM; Ki [9]: > 100 µM
B31 |  |  |  | Ki [8]: 27.8 µM; Ki [9]: 1.34 µM and 0.659 µM
B32 |  |  |  | Ki [9]: > 100 µM
B33 |  |  |  | Ki [9]: 17.2 µM
B34 |  |  |  | Ki [9]: 16.2 µM
B35 |  |  |  | Ki [9]: 22.7 µM
B36 | 95.6 µM |  |  | 
